Values quoted from earlier work, collected in paper PMC4131687.

Key:
[1] = biological target: NaV1.4 (Rattus norvegicus) (UniProt P15390)
[2] = biological target: NaV1.2 (Rattus norvegicus) (UniProt P04775)
Chain of NaV1.2 (Rattus norvegicus) (P04775 whole entry): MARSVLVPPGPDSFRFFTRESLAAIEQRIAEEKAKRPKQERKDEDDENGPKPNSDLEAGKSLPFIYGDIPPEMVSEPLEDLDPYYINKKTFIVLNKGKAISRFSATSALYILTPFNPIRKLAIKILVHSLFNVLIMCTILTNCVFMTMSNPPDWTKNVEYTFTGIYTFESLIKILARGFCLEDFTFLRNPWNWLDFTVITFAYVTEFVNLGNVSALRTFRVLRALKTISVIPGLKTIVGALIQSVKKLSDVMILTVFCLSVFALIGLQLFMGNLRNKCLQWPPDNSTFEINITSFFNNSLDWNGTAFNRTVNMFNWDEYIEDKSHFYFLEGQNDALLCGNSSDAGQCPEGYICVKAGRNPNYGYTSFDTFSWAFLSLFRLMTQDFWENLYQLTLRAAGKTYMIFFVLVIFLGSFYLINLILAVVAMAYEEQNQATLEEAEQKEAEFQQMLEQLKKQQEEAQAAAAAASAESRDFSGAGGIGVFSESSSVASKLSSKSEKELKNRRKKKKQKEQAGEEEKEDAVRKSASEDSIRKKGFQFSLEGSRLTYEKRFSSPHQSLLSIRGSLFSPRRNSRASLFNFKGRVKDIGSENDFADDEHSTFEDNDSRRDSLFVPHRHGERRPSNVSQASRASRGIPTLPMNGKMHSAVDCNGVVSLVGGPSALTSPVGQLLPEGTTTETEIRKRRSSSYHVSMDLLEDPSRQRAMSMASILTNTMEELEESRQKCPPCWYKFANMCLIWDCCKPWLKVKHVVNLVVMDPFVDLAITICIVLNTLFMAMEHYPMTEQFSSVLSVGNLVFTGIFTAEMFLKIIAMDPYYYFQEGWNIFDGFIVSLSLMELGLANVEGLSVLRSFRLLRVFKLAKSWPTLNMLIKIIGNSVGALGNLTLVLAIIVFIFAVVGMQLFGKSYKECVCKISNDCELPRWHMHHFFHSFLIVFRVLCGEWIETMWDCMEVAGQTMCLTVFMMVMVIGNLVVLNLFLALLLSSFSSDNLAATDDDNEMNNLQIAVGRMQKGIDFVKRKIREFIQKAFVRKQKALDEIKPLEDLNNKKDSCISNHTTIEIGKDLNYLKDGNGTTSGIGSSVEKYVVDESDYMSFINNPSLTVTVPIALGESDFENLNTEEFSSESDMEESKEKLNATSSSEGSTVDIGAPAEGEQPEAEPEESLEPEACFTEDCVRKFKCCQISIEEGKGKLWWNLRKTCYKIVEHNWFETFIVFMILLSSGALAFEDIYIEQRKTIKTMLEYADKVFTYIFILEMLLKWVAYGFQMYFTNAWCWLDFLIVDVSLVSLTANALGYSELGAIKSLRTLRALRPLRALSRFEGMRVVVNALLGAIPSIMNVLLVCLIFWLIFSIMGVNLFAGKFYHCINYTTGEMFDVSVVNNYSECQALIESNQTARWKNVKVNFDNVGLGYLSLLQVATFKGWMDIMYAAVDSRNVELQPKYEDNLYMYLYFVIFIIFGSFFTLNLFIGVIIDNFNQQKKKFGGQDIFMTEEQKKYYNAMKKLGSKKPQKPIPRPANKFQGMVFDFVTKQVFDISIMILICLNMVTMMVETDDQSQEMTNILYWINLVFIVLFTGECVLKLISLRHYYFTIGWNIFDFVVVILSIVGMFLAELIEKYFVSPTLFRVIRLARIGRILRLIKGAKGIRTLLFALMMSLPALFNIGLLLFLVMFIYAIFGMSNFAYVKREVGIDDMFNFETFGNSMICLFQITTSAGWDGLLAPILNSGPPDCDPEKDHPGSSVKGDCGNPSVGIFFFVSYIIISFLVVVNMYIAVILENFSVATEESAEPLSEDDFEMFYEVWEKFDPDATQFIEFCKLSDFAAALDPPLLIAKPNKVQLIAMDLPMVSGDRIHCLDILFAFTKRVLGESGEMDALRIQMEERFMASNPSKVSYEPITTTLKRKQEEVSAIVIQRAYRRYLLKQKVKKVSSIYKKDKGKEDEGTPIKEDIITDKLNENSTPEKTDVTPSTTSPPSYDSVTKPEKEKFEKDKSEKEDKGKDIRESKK

Chain of NaV1.4 (Rattus norvegicus) (P15390 whole entry): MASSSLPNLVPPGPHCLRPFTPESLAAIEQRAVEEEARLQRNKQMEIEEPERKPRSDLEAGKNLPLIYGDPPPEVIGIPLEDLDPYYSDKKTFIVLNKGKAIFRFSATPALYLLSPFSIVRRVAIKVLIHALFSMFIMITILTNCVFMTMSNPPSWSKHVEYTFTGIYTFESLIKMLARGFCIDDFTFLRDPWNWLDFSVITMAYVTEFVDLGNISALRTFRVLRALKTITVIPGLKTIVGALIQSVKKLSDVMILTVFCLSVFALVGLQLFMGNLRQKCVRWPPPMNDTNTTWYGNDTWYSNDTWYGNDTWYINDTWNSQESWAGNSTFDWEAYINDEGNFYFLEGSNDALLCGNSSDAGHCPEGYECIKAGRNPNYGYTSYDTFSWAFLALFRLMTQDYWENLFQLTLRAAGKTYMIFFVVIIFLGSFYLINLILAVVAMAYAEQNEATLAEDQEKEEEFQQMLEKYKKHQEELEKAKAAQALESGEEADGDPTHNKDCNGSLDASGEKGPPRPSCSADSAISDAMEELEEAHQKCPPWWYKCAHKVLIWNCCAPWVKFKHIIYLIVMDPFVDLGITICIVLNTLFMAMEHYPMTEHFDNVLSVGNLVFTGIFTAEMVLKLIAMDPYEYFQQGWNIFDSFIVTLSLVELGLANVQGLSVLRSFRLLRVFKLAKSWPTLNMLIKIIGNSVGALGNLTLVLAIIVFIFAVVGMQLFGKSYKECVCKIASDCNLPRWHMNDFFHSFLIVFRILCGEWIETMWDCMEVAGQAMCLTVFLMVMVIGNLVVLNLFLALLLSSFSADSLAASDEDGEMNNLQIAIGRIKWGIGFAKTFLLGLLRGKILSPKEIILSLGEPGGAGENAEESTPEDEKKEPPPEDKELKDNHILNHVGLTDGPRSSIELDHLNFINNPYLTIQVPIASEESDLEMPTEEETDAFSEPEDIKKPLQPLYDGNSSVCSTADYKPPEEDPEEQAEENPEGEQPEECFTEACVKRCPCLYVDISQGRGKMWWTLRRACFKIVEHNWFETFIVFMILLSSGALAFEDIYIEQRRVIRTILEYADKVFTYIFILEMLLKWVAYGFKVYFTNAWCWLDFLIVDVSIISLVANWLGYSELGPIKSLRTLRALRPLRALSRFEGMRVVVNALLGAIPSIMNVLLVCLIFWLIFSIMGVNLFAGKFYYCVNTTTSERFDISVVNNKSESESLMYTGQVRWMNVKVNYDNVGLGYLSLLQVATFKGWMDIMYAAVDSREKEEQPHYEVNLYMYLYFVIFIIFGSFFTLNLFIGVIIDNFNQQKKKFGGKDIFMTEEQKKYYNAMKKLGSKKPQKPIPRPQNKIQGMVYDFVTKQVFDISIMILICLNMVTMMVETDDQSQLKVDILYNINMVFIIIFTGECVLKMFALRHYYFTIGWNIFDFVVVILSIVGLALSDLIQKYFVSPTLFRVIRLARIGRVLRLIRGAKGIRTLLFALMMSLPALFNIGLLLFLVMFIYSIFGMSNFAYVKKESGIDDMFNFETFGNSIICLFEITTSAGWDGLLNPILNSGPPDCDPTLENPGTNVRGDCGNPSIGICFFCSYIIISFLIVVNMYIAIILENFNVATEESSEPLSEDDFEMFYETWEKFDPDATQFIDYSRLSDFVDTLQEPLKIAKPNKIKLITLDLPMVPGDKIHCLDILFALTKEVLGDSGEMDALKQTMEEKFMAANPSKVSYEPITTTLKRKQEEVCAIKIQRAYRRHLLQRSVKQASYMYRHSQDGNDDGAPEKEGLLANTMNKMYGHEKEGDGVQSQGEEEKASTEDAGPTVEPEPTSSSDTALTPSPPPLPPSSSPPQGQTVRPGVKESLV

mu-conotoxin KIIIA (from UniProt P0C195)
Kd [1]: 50 nM

μ-conotoxin KIIIA-P1 (from UniProt P0C195)
Kd [2]: 5 nM
